T1: thermostable variant of Streptomyces mobaraensis transglutaminase (Streptomyces mobaraensis, UniProt P81453 79-407)
T1 sequence: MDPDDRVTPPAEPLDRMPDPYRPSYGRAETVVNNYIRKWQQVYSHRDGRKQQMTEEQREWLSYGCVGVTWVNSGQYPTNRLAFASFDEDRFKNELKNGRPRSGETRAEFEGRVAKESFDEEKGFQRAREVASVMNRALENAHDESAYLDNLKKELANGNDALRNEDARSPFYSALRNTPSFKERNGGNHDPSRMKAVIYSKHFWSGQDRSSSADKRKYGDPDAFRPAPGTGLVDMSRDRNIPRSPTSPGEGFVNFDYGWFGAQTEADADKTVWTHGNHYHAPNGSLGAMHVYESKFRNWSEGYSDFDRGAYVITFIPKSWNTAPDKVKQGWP


How the values were obtained:
[1] = molecular target: T1, thermostable variant of Streptomyces …; assay: cell-based or functional assay
[2] = molecular target: T1, thermostable variant of Streptomyces …; assay: cell-based or functional assay; remark: listed apart in the source

Row | Binder | Improvement in pH responsiveness of inhibitory peptide relative to WT [1] [fold] | Reduction in binding affinity of inhibitory peptide relative to WT [2] [fold]
1 | MDNGAGEYTKSYAETYRLTADDVANINALNESAPAASSAGPSFRAP [pro-peptide variant E8Y] | > 1.2 | > 1.2
2 | MDNGAGEEQKSYAETYRLTADDVANINALNESAPAASSAGPSFRAP [pro-peptide variant T9Q] | > 1.2 | > 1.2
3 | MDNGAGEETDSYAETYRLTADDVANINALNESAPAASSAGPSFRAP [pro-peptide variant K10D] | > 1.2 | > 1.2
4 | MDNGAGEETGSYAETYRLTADDVANINALNESAPAASSAGPSFRAP [pro-peptide variant K10G] | > 5 | > 1.2
5 | MDNGAGEETRSYAETYRLTADDVANINALNESAPAASSAGPSFRAP [pro-peptide variant K10R] | > 1.2 | > 1.2
6 | MDNGAGEETKDYAETYRLTADDVANINALNESAPAASSAGPSFRAP [pro-peptide variant S11D] | > 1.2 | > 1.2
7 | MDNGAGEETKKYAETYRLTADDVANINALNESAPAASSAGPSFRAP [pro-peptide variant S11K] | > 1.2 | > 1.2
8 | MDNGAGEETKLYAETYRLTADDVANINALNESAPAASSAGPSFRAP [pro-peptide variant S11L] | > 1.2 | > 1.2
9 | MDNGAGEETKSGAETYRLTADDVANINALNESAPAASSAGPSFRAP [pro-peptide variant Y12G] | > 1.2 | > 1.2
10 | MDNGAGEETKSLAETYRLTADDVANINALNESAPAASSAGPSFRAP [pro-peptide variant Y12L] | > 1.2 | > 1.2
11 | MDNGAGEETKSNAETYRLTADDVANINALNESAPAASSAGPSFRAP [pro-peptide variant Y12N] | > 1.2 | > 1.2
12 | MDNGAGEETKSTAETYRLTADDVANINALNESAPAASSAGPSFRAP [pro-peptide variant Y12T] | > 1.2 | > 1.2
13 | MDNGAGEETKSVAETYRLTADDVANINALNESAPAASSAGPSFRAP [pro-peptide variant Y12V] | > 1.2 | > 1.2
14 | MDNGAGEETKSYAGTYRLTADDVANINALNESAPAASSAGPSFRAP [pro-peptide variant E14G] | > 5 | > 1.2
15 | MDNGAGEETKSYANTYRLTADDVANINALNESAPAASSAGPSFRAP [pro-peptide variant E14N] | > 5 | > 1.2

From patent US20250304927A1, “PRO-PEPTIDE VARIANTS FOR MODULATING ACTIVITY OF TRANSGLUTAMINASES” (CURIE CO. INC., priority 2022, published 2025)
